Test results reported in IntAct's records for PubMed 30126976.

B1: Ribosomal protein S6 kinase alpha-1 (Homo sapiens), Q15418 (parent)
chain: MPLAQLKEPWPLMELVPLDPENGQTSGEEAGLQPSKDEGVLKEISITHHVKAGSEKADPSHFELLKVLGQGSFGKVFLVRKVTRPDSGHLYAMKVLKKATLKVRDRVRTKMERDILADVNHPFVVKLHYAFQTEGKLYLILDFLRGGDLFTRLSKEVMFTEEDVKFYLAELALGLDHLHSLGIIYRDLKPENILLDEEGHIKLTDFGLSKEAIDHEKKAYSFCGTVEYMAPEVVNRQGHSHSADWWSYGVLMFEMLTGSLPFQGKDRKETMTLILKAKLGMPQFLSTEAQSLLRALFKRNPANRLGSGPDGAEEIKRHVFYSTIDWNKLYRREIKPPFKPAVAQPDDTFYFDTEFTSRTPKDSPGIPPSAGAHQLFRGFSFVATGLMEDDGKPRAPQAPLHSVVQQLHGKNLVFSDGYVVKETIGVGSYSECKRCVHKATNMEYAVKVIDKSKRDPSEEIEILLRYGQHPNIITLKDVYDDGKHVYLVTELMRGGELLDKILRQKFFSEREASFVLHTIGKTVEYLHSQGVVHRDLKPSNILYVDESGNPECLRICDFGFAKQLRAENGLLMTPCYTANFVAPEVLKRQGYDEGCDIWSLGILLYTMLAGYTPFANGPSDTPEEILTRIGSGKFTLSGGNWNTVSETAKDLVSKMLHVDPHQRLTAKQVLQHPWVTQKDKLPQSQLSHQDLQLVKGAMAATYSALNSSKPTPQLKPIESSILAQRRVRKLPSTTL
B2: Solute carrier family 15 member 5 (Homo sapiens), A6NIM6 (parent)
chain: MSVTGFTITDEKVHLYHSIEKEKTVRHIGDLCSSHSVKKIQVGICLLLVELCERFTFFEVVCNMIPFCTIKLGYHNCQAAILNLCFIGTSILTPVFVRWLTDVYLGRNKLVYICLFLHFLGTALLSVVAFPLEDFYLGTYHAVNNIPKTEQHRLFYVALLTICLGIGGVRAIVCPLGAFGLQEYGSQKTMSFFNWFYWLMNLNATIVFLGISYIQHSQAWALVLLIPFMSMLMAVITLHMIYYNLIYQSEKRCSLLTGVGVLVSALKTCHPQYCHLGRDVTSQLDHAKEKNGGCYSELHVEDTTFFLTLLPLFIFQLLYRMCIMQIPSGYYLQTMNSNLNLDGFLLPIAVMNAISSLPLLILAPFLEYFSTCLFPSKRVGSFLSTCIIAGNLFAALSVMIAGFFEIHRKHFPAVEQPLSGKVLTVSSMPCFYLILQYVLLGVAETLVNPALSVISYRFVPSNVRGTSMNFLTLFNGFGCFTGALLVKLVYLISDGNWFPNTLNKGNLESFFFFLASLTLLNVLGFCSVSQRYCNLNHFNAQNIRGSNLEETLLLHEKSLKFYGSIQEFSSSIDLWETAL
B3: Corticotropin-releasing factor receptor 1 (Homo sapiens), P34998-1 (parent)
chain: MGGHPQLRLVKALLLLGLNPVSASLQDQHCESLSLASNISGLQCNASVDLIGTCWPRSPAGQLVVRPCPAFFYGVRYNTTNNGYRECLANGSWAARVNYSECQEILNEEKKSKVHYHVAVIINYLGHCISLVALLVAFVLFLRLRPGCTHWGDQADGALEVGAPWSGAPFQVRRSIRCLRNIIHWNLISAFILRNATWFVVQLTMSPEVHQSNVGWCRLVTAAYNYFHVTNFFWMFGEGCYLHTAIVLTYSTDRLRKWMFICIGWGVPFPIIVAWAIGKLYYDNEKCWFGKRPGVYTDYIYQGPMILVLLINFIFLFNIVRILMTKLRASTTSETIQYRKAVKATLVLLPLLGITYMLFFVNPGEDEVSRVVFIYFNSFLESFQGFFVSVFYCFLNSEVRSAIRKRWHRWQDKHSIRARVARAMSIPTSPTRVSFHSIKQSTAV
B4: Plasma membrane calcium-transporting ATPase 2 (Homo sapiens), Q01814 (parent)
chain: MGDMTNSDFYSKNQRNESSHGGEFGCTMEELRSLMELRGTEAVVKIKETYGDTEAICRRLKTSPVEGLPGTAPDLEKRKQIFGQNFIPPKKPKTFLQLVWEALQDVTLIILEIAAIISLGLSFYHPPGEGNEGCATAQGGAEDEGEAEAGWIEGAAILLSVICVVLVTAFNDWSKEKQFRGLQSRIEQEQKFTVVRAGQVVQIPVAEIVVGDIAQVKYGDLLPADGLFIQGNDLKIDESSLTGESDQVRKSVDKDPMLLSGTHVMEGSGRMLVTAVGVNSQTGIIFTLLGAGGEEEEKKDKKGVKKGDGLQLPAADGAAASNAADSANASLVNGKMQDGNVDASQSKAKQQDGAAAMEMQPLKSAEGGDADDRKKASMHKKEKSVLQGKLTKLAVQIGKAGLVMSAITVIILVLYFTVDTFVVNKKPWLPECTPVYVQYFVKFFIIGVTVLVVAVPEGLPLAVTISLAYSVKKMMKDNNLVRHLDACETMGNATAICSDKTGTLTTNRMTVVQAYVGDVHYKEIPDPSSINTKTMELLINAIAINSAYTTKILPPEKEGALPRQVGNKTECGLLGFVLDLKQDYEPVRSQMPEEKLYKVYTFNSVRKSMSTVIKLPDESFRMYSKGASEIVLKKCCKILNGAGEPRVFRPRDRDEMVKKVIEPMACDGLRTICVAYRDFPSSPEPDWDNENDILNELTCICVVGIEDPVRPEVPEAIRKCQRAGITVRMVTGDNINTARAIAIKCGIIHPGEDFLCLEGKEFNRRIRNEKGEIEQERIDKIWPKLRVLARSSPTDKHTLVKGIIDSTHTEQRQVVAVTGDGTNDGPALKKADVGFAMGIAGTDVAKEASDIILTDDNFSSIVKAVMWGRNVYDSISKFLQFQLTVNVVAVIVAFTGACITQDSPLKAVQMLWVNLIMDTFASLALATEPPTETLLLRKPYGRNKPLISRTMMKNILGHAVYQLALIFTLLFVGEKMFQIDSGRNAPLHSPPSEHYTIIFNTFVMMQLFNEINARKIHGERNVFDGIFRNPIFCTIVLGTFAIQIVIVQFGGKPFSCSPLQLDQWMWCIFIGLGELVWGQVIATIPTSRLKFLKEAGRLTQKEEIPEEELNEDVEEIDHAERELRRGQILWFRGLNRIQTQIRVVKAFRSSLYEGLEKPESRTSIHNFMAHPEFRIEDSQPHIPLIDDTDLEEDAALKQNSSPPSSLNKNNSAIDSGINLTTDTSKSATSSSPGSPIHSLETSL

Variants of: B1
Conditions: with scrib_human SCRIB

Variant	effect of a mutation on the interaction
S732E;T734E	increasing interaction strength

Variants of: B2
Conditions: with scrib_human SCRIB

Variant	effect of a mutation on the interaction
MSVTGFTITDEKVHLYHSIEKEKTVRHIGDLCSSHSVKKIQVGICLLLVELCERFTFFEVVCNMIPFCTIKLGYHNCQAAILNLCFIGTSILTPVFVRWLTDVYLGRNKLVYICLFLHFLGTALLSVVAFPLEDFYLGTYHAVNNIPKTEQHRLFYVALLTICLGIGGVRAIVCPLGAFGLQEYGSQKTMSFFNWFYWLMNLNATIVFLGISYIQHSQAWALVLLIPFMSMLMAVITLHMIYYNLIYQSEKRCSLLTGVGVLVSALKTCHPQYCHLGRDVTSQLDHAKEKNGGCYSELHVEDTTFFLTLLPLFIFQLLYRMCIMQIPSGYYLQTMNSNLNLDGFLLPIAVMNAISSLPLLILAPFLEYFSTCLFPSKRVGSFLSTCIIAGNLFAALSVMIAGFFEIHRKHFPAVEQPLSGKVLTVSSMPCFYLILQYVLLGVAETLVNPALSVISYRFVPSNVRGTSMNFLTLFNGFGCFTGALLVKLVYLISDGNWFPNTLNKGNLESFFFFLASLTLLNVLGFCSVSQRYCNLNHFNAQNIRGSNLEETLLLHEKSLKFYGSIQEFSSEIDLWETAL [S571E]	decreasing interaction strength

Variants of: B3
Conditions: with scrib_human SCRIB

Variant	effect of a mutation on the interaction
MGGHPQLRLVKALLLLGLNPVSASLQDQHCESLSLASNISGLQCNASVDLIGTCWPRSPAGQLVVRPCPAFFYGVRYNTTNNGYRECLANGSWAARVNYSECQEILNEEKKSKVHYHVAVIINYLGHCISLVALLVAFVLFLRLRPGCTHWGDQADGALEVGAPWSGAPFQVRRSIRCLRNIIHWNLISAFILRNATWFVVQLTMSPEVHQSNVGWCRLVTAAYNYFHVTNFFWMFGEGCYLHTAIVLTYSTDRLRKWMFICIGWGVPFPIIVAWAIGKLYYDNEKCWFGKRPGVYTDYIYQGPMILVLLINFIFLFNIVRILMTKLRASTTSETIQYRKAVKATLVLLPLLGITYMLFFVNPGEDEVSRVVFIYFNSFLESFQGFFVSVFYCFLNSEVRSAIRKRWHRWQDKHSIRARVARAMSIPTSPTRVSFHSIKQETAV [S441E]	with no effect

Variants of: B3
Conditions: with dlg1_human DLG1, Q12959

Variant	effect of a mutation on the interaction
MGGHPQLRLVKALLLLGLNPVSASLQDQHCESLSLASNISGLQCNASVDLIGTCWPRSPAGQLVVRPCPAFFYGVRYNTTNNGYRECLANGSWAARVNYSECQEILNEEKKSKVHYHVAVIINYLGHCISLVALLVAFVLFLRLRPGCTHWGDQADGALEVGAPWSGAPFQVRRSIRCLRNIIHWNLISAFILRNATWFVVQLTMSPEVHQSNVGWCRLVTAAYNYFHVTNFFWMFGEGCYLHTAIVLTYSTDRLRKWMFICIGWGVPFPIIVAWAIGKLYYDNEKCWFGKRPGVYTDYIYQGPMILVLLINFIFLFNIVRILMTKLRASTTSETIQYRKAVKATLVLLPLLGITYMLFFVNPGEDEVSRVVFIYFNSFLESFQGFFVSVFYCFLNSEVRSAIRKRWHRWQDKHSIRARVARAMSIPTSPTRVSFHSIKQETAV [S441E]	increasing interaction strength
MGGHPQLRLVKALLLLGLNPVSASLQDQHCESLSLASNISGLQCNASVDLIGTCWPRSPAGQLVVRPCPAFFYGVRYNTTNNGYRECLANGSWAARVNYSECQEILNEEKKSKVHYHVAVIINYLGHCISLVALLVAFVLFLRLRPGCTHWGDQADGALEVGAPWSGAPFQVRRSIRCLRNIIHWNLISAFILRNATWFVVQLTMSPEVHQSNVGWCRLVTAAYNYFHVTNFFWMFGEGCYLHTAIVLTYSTDRLRKWMFICIGWGVPFPIIVAWAIGKLYYDNEKCWFGKRPGVYTDYIYQGPMILVLLINFIFLFNIVRILMTKLRASTTSETIQYRKAVKATLVLLPLLGITYMLFFVNPGEDEVSRVVFIYFNSFLESFQGFFVSVFYCFLNSEVRSAIRKRWHRWQDKHSIRARVARAMSIPTSPTRVSFHEIKQETAV [S437E;S441E]	increasing interaction strength

Variants of: B4
Conditions: with scrib_human SCRIB

Variant	effect of a mutation on the interaction
T1241E	decreasing interaction strength
S1242E	with no effect

Variants of: B4
Conditions: with scrib_human SCRIB
Remark: another data set of the same source

Variant	effect of a mutation on the interaction
S1238E	disrupting interaction strength
S1242E	increasing interaction strength
